{"source": "the Immune Epitope Database (IEDB)", "key": {"[1]": {"biological_target": "HLA-A*02:16", "experiment": "IEDB peptide-MHC binding, purified MHC/direct/fluorescence; filed as Kd, often an IC50 or EC50 that approximates it; ≥ and ≤ were set here for values at or beyond the usual limits of such assays"}, "[2]": {"biological_target": "HLA-A*02:12", "experiment": "IEDB peptide-MHC binding, purified MHC/direct/fluorescence; filed as Kd, often an IC50 or EC50 that approximates it; ≥ and ≤ were set here for values at or beyond the usual limits of such assays"}, "[3]": {"biological_target": "HLA-A*02:03", "experiment": "IEDB peptide-MHC binding, purified MHC/direct/fluorescence; filed as Kd, often an IC50 or EC50 that approximates it; ≥ and ≤ were set here for values at or beyond the usual limits of such assays"}, "[4]": {"biological_target": "HLA-A*02:19", "experiment": "IEDB peptide-MHC binding, purified MHC/direct/fluorescence; filed as Kd, often an IC50 or EC50 that approximates it; ≥ and ≤ were set here for values at or beyond the usual limits of such assays"}, "[5]": {"biological_target": "HLA-A*03:01", "experiment": "IEDB peptide-MHC binding, purified MHC/direct/fluorescence; filed as Kd, often an IC50 or EC50 that approximates it; ≥ and ≤ were set here for values at or beyond the usual limits of such assays"}, "[6]": {"biological_target": "HLA-A*02:11", "experiment": "IEDB peptide-MHC binding, purified MHC/direct/fluorescence; filed as Kd, often an IC50 or EC50 that approximates it; ≥ and ≤ were set here for values at or beyond the usual limits of such assays"}, "[7]": {"biological_target": "HLA-A*24:03", "experiment": "IEDB peptide-MHC binding, purified MHC/direct/fluorescence; filed as Kd, often an IC50 or EC50 that approximates it; ≥ and ≤ were set here for values at or beyond the usual limits of such assays"}, "[8]": {"biological_target": "HLA-A*68:02", "experiment": "IEDB peptide-MHC binding, purified MHC/direct/fluorescence; filed as Kd, often an IC50 or EC50 that approximates it; ≥ and ≤ were set here for values at or beyond the usual limits of such assays"}, "[9]": {"biological_target": "HLA-B*15:01", "experiment": "IEDB peptide-MHC binding, purified MHC/competitive/fluorescence; ≥ and ≤ were set here for values at or beyond the usual limits of such assays"}, "[10]": {"biological_target": "HLA-A*24:02", "experiment": "IEDB peptide-MHC binding, purified MHC/competitive/fluorescence; ≥ and ≤ were set here for values at or beyond the usual limits of such assays"}, "[11]": {"biological_target": "HLA-A*02:01", "experiment": "IEDB peptide-MHC binding, purified MHC/competitive/fluorescence; ≥ and ≤ were set here for values at or beyond the usual limits of such assays"}, "[12]": {"biological_target": "HLA-B*27:03", "experiment": "IEDB peptide-MHC binding, purified MHC/competitive/fluorescence; filed as Kd, often an IC50 or EC50 that approximates it; ≥ and ≤ were set here for values at or beyond the usual limits of such assays", "settings": "source organism: Zaire ebolavirus"}, "[13]": {"biological_target": "HLA-B*39:01", "experiment": "IEDB peptide-MHC binding, purified MHC/competitive/fluorescence; filed as Kd, often an IC50 or EC50 that approximates it; ≥ and ≤ were set here for values at or beyond the usual limits of such assays", "settings": "source organism: Zaire ebolavirus"}, "[14]": {"biological_target": "HLA-B*18:01", "experiment": "IEDB peptide-MHC binding, purified MHC/competitive/fluorescence; filed as Kd, often an IC50 or EC50 that approximates it; ≥ and ≤ were set here for values at or beyond the usual limits of such assays", "settings": "source organism: Zaire ebolavirus"}, "[15]": {"biological_target": "HLA-B*15:17", "experiment": "IEDB peptide-MHC binding, purified MHC/competitive/fluorescence; filed as Kd, often an IC50 or EC50 that approximates it; ≥ and ≤ were set here for values at or beyond the usual limits of such assays", "settings": "source organism: Zaire ebolavirus"}, "[16]": {"biological_target": "HLA-A*69:01", "experiment": "IEDB peptide-MHC binding, purified MHC/competitive/fluorescence; filed as Kd, often an IC50 or EC50 that approximates it; ≥ and ≤ were set here for values at or beyond the usual limits of such assays", "settings": "source organism: Zaire ebolavirus"}, "[17]": {"biological_target": "HLA-B*46:01", "experiment": "IEDB peptide-MHC binding, purified MHC/competitive/fluorescence; filed as Kd, often an IC50 or EC50 that approximates it; ≥ and ≤ were set here for values at or beyond the usual limits of such assays", "settings": "source organism: Zaire ebolavirus"}, "[18]": {"biological_target": "HLA-A*26:01", "experiment": "IEDB peptide-MHC binding, purified MHC/competitive/fluorescence; filed as Kd, often an IC50 or EC50 that approximates it; ≥ and ≤ were set here for values at or beyond the usual limits of such assays", "settings": "source organism: Zaire ebolavirus"}, "[19]": {"biological_target": "HLA-B*57:01", "experiment": "IEDB peptide-MHC binding, purified MHC/competitive/fluorescence; filed as Kd, often an IC50 or EC50 that approximates it; ≥ and ≤ were set here for values at or beyond the usual limits of such assays", "settings": "source organism: Zaire ebolavirus"}, "[20]": {"biological_target": "HLA-A*02:01", "experiment": "IEDB peptide-MHC binding, purified MHC/competitive/fluorescence; filed as Kd, often an IC50 or EC50 that approximates it; ≥ and ≤ were set here for values at or beyond the usual limits of such assays", "settings": "source organism: Zaire ebolavirus"}, "[21]": {"biological_target": "HLA-B*51:01", "experiment": "IEDB peptide-MHC binding, purified MHC/competitive/fluorescence; filed as Kd, often an IC50 or EC50 that approximates it; ≥ and ≤ were set here for values at or beyond the usual limits of such assays", "settings": "source organism: Zaire ebolavirus"}, "[22]": {"biological_target": "HLA-B*07:02", "experiment": "IEDB peptide-MHC binding, purified MHC/competitive/fluorescence; ≥ and ≤ were set here for values at or beyond the usual limits of such assays"}, "[23]": {"biological_target": "HLA-A*23:01", "experiment": "IEDB peptide-MHC binding, purified MHC/direct/fluorescence; filed as Kd, often an IC50 or EC50 that approximates it; ≥ and ≤ were set here for values at or beyond the usual limits of such assays", "settings": "source organism: Entamoeba histolytica HM-1:IMSS"}, "[24]": {"biological_target": "HLA-A*29:02", "experiment": "IEDB peptide-MHC binding, purified MHC/direct/fluorescence; filed as Kd, often an IC50 or EC50 that approximates it; ≥ and ≤ were set here for values at or beyond the usual limits of such assays", "settings": "source organism: Ebola virus Yambio0403"}, "[25]": {"biological_target": "HLA-B*15:01", "experiment": "IEDB peptide-MHC binding, purified MHC/competitive/fluorescence; filed as Kd, often an IC50 or EC50 that approximates it; ≥ and ≤ were set here for values at or beyond the usual limits of such assays", "settings": "source organism: Zaire ebolavirus"}, "[26]": {"settings": "source organism: Zaire ebolavirus"}, "[27]": {"settings": "source organism: Sudan ebolavirus"}, "[28]": {"settings": "source organism: Ebola virus Yambio0403"}}, "data": [{"sequence": "QFLSFASLF", "values": [{"measurement": "Kd", "setting": "[1]; [26]", "result": "≥ 20", "unit": "µM"}, {"measurement": "Kd", "setting": "[2]; [26]", "result": "≥ 20", "unit": "µM"}, {"measurement": "Kd", "setting": "[3]; [26]", "result": "≥ 20", "unit": "µM"}, {"measurement": "Kd", "setting": "[4]; [26]", "result": "≥ 20", "unit": "µM"}, {"measurement": "Kd", "setting": "[5]; [26]", "result": "≥ 20", "unit": "µM"}, {"measurement": "Kd", "setting": "[6]; [26]", "result": "≥ 20", "unit": "µM"}, {"measurement": "Kd", "setting": "[7]; source organism: Reston ebolavirus", "result": 2.7, "unit": "nM"}, {"measurement": "Kd", "setting": "[8]; [26]", "result": "≥ 20", "unit": "µM"}, {"measurement": "IC50", "setting": "[9]; [26]", "result": 9.93, "unit": "µM"}, {"measurement": "IC50", "setting": "[10]; [26]", "result": 0.0128, "unit": "µM"}, {"measurement": "IC50", "setting": "[11]; [26]", "result": "≥ 88.1", "unit": "µM"}, {"measurement": "Kd", "setting": "[12]", "result": "≥ 20", "unit": "µM"}, {"measurement": "Kd", "setting": "[13]", "result": "≥ 20", "unit": "µM"}, {"measurement": "Kd", "setting": "[14]", "result": "≥ 20", "unit": "µM"}, {"measurement": "Kd", "setting": "[15]", "result": "≥ 20", "unit": "µM"}, {"measurement": "Kd", "setting": "[16]", "result": "≥ 20", "unit": "µM"}, {"measurement": "Kd", "setting": "[17]", "result": "≥ 20", "unit": "µM"}, {"measurement": "Kd", "setting": "[18]", "result": "≥ 20", "unit": "µM"}, {"measurement": "Kd", "setting": "[19]", "result": "≥ 20", "unit": "µM"}, {"measurement": "Kd", "setting": "[20]", "result": "≥ 20", "unit": "µM"}, {"measurement": "Kd", "setting": "[21]", "result": "≥ 20", "unit": "µM"}]}, {"sequence": "QLKSVGLNL", "values": [{"measurement": "IC50", "setting": "[22]; [27]", "result": 6.4, "unit": "µM"}, {"measurement": "IC50", "setting": "[9]; [27]", "result": 14.4, "unit": "µM"}, {"measurement": "IC50", "setting": "[10]; [27]", "result": 24.5, "unit": "µM"}, {"measurement": "IC50", "setting": "[11]; [27]", "result": 7.56, "unit": "µM"}]}, {"sequence": "QYIHLLCNK", "values": [{"measurement": "Kd", "setting": "[23]", "result": 200, "unit": "nM"}, {"measurement": "Kd", "setting": "[7]; source organism: Entamoeba histolytica HM-1:IMSS", "result": 1110, "unit": "nM"}]}, {"sequence": "RYEFTAPFI", "values": [{"measurement": "Kd", "setting": "[1]; [28]", "result": "≥ 20", "unit": "µM"}, {"measurement": "Kd", "setting": "[2]; [28]", "result": "≥ 20", "unit": "µM"}, {"measurement": "Kd", "setting": "[3]; [28]", "result": "≥ 20", "unit": "µM"}, {"measurement": "Kd", "setting": "[24]", "result": "≥ 20", "unit": "µM"}, {"measurement": "Kd", "setting": "[4]; [28]", "result": "≥ 20", "unit": "µM"}, {"measurement": "Kd", "setting": "[5]; [28]", "result": "≥ 20", "unit": "µM"}, {"measurement": "Kd", "setting": "[6]; [28]", "result": "≥ 20", "unit": "µM"}, {"measurement": "Kd", "setting": "[7]; [26]", "result": 0.2, "unit": "nM"}, {"measurement": "Kd", "setting": "[8]; [28]", "result": "≥ 20", "unit": "µM"}, {"measurement": "Kd", "setting": "[12]", "result": "≥ 20", "unit": "µM"}, {"measurement": "Kd", "setting": "[13]", "result": "≥ 20", "unit": "µM"}, {"measurement": "Kd", "setting": "[14]", "result": "≥ 20", "unit": "µM"}, {"measurement": "Kd", "setting": "[25]", "result": "≥ 20", "unit": "µM"}, {"measurement": "Kd", "setting": "[15]", "result": "≥ 20", "unit": "µM"}, {"measurement": "Kd", "setting": "[16]", "result": "≥ 20", "unit": "µM"}, {"measurement": "Kd", "setting": "[17]", "result": "≥ 20", "unit": "µM"}, {"measurement": "Kd", "setting": "[18]", "result": "≥ 20", "unit": "µM"}, {"measurement": "Kd", "setting": "[19]", "result": "≥ 20", "unit": "µM"}, {"measurement": "Kd", "setting": "[20]", "result": "≥ 20", "unit": "µM"}, {"measurement": "Kd", "setting": "[21]", "result": "≥ 20", "unit": "µM"}]}, {"sequence": "TPTVAPPAP", "values": [{"measurement": "IC50", "setting": "[22]; [26]", "result": "≥ 145", "unit": "µM"}]}]}
